These are literature values, as cited in paper PMC6679882.

For this data set, the target named is IL-18BP (Homo sapiens) (UniProt O95998).
Chain of IL-18BP (Homo sapiens) (O95998 31-194): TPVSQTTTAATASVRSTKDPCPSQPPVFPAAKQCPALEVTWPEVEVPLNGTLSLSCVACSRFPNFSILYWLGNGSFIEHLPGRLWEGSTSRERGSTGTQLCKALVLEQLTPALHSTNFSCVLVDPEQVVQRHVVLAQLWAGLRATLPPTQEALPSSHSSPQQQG

Chain of IL-18 (Q14116 37-193): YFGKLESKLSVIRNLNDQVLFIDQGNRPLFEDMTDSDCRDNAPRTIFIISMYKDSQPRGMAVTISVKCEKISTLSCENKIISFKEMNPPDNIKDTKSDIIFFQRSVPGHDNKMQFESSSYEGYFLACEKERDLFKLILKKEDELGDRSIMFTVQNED

On to IL-18 (from UniProt Q14116), for which the Kd was 400 pM.

One may read the Kd as a measure of binding affinity in units of concentration.
